# According to FireProtDB:
# Conditions: Escherichia coli (strain K12), Thermal, CD, whole UniProt chain shown; for unfolding free energy: reversible: yes
# [1] = pH 0.53, glycine-HCl 10 mM, reversible: yes (95%)
# [2] = pH 0.83, glycine-HCl 10 mM, reversible: yes (96%)
# [3] = pH 1.02, glycine-HCl 10 mM, reversible: yes (98%)
# [4] = pH 1.07, glycine-HCl 10 mM, reversible: yes (88%)
# [5] = pH 1.08, glycine-HCl 10 mM, reversible: yes (102%)
# [6] = pH 1.14, glycine-HCl 10 mM, reversible: yes (101%)
# [7] = pH 1.24, glycine-HCl 10 mM, reversible: yes (103%)
# [8] = pH 1.28, glycine-HCl 10 mM, reversible: yes (100%)
# [9] = pH 1.3, glycine-HCl 10 mM, reversible: yes (101%)
# [10] = pH 1.31, glycine-HCl 10 mM, reversible: yes (94%)
# [11] = pH 1.4, glycine-HCl 10 mM, reversible: yes (91%)
# [12] = pH 1.41, glycine-HCl 10 mM, reversible: yes (98%)
# [13] = pH 1.45, glycine-HCl 10 mM, reversible: yes (101%)
# [14] = pH 1.52, glycine-HCl 10 mM, reversible: yes (107%)
# [15] = pH 1.55, glycine-HCl 10 mM, reversible: yes (93%)
# [16] = pH 1.55, glycine-HCl 10 mM, reversible: yes (104%)
# [17] = pH 1.62, glycine-HCl 10 mM, reversible: yes (100%)
# [18] = pH 1.63, glycine-HCl 10 mM, reversible: yes (108%)
# [19] = pH 1.67, glycine-HCl 10 mM, reversible: yes (108%)
# [20] = pH 1.71, glycine-HCl 10 mM, reversible: yes (98%)
# [21] = pH 1.75, glycine-HCl 10 mM, reversible: yes (90%)
# [22] = pH 1.76, glycine-HCl 10 mM, reversible: yes (101%)
# [23] = pH 1.79, glycine-HCl 10 mM, reversible: yes (104%)
# [24] = pH 1.84, glycine-HCl 10 mM, reversible: yes (110%)
# [25] = pH 1.94, glycine-HCl 10 mM, reversible: yes (88%)
# [26] = pH 2, glycine-HCl 10 mM, reversible: yes (98%)
# [27] = pH 2.03, glycine-HCl 10 mM, reversible: yes (109%)
# [28] = pH 2.04, glycine-HCl 10 mM, reversible: yes (95%)
# [29] = pH 2.15, glycine-HCl 10 mM, reversible: yes (92%)
# [30] = pH 2.18, glycine-HCl 10 mM, reversible: yes (90%)
# [31] = pH 2.22, glycine-HCl 10 mM, reversible: yes (95%)
# [32] = pH 2.39, glycine-HCl 10 mM, reversible: yes (95%)
# [33] = pH 2.45, glycine-HCl 10 mM, reversible: yes (96%)
# [34] = pH 2.53, glycine-HCl 10 mM, reversible: yes (92%)
# [35] = pH 2.65, glycine-HCl 10 mM, reversible: yes (91%)
# [36] = pH 2.79, glycine-HCl 10 mM, reversible: yes (92%)
# [37] = pH 2.86, glycine-HCl 10 mM, reversible: yes (97%)
# [38] = pH 2.95, glycine-HCl 10 mM, reversible: yes (92%)
# [39] = pH 3.06, glycine-HCl 10 mM, reversible: yes (90%)
# [40] = pH 3.1, glycine-HCl 10 mM, reversible: yes (85%)
# [41] = pH 3.11, glycine-HCl 10 mM, reversible: yes (91%)
# [42] = pH 3.18, glycine-HCl 10 mM, reversible: yes (93%)
# [43] = pH 3.25, glycine-HCl 10 mM, reversible: yes (94%)
# [44] = pH 3.26, glycine-HCl 10 mM, reversible: yes (95%)
# [45] = pH 3.34, glycine-HCl 10 mM, reversible: yes (94%)
# [46] = pH 3.38, glycine-HCl 10 mM, reversible: yes (96%)
# [47] = pH 3.64, glycine-HCl 10 mM, reversible: yes (93%)
# [48] = pH 3.98, glycine-HCl 10 mM, reversible: yes (93%)
# [49] = pH 4, glycine-HCl 10 mM, reversible: yes (94%)
protein,measurement,setting,value
"Ribonuclease HI wild type, P0A7Y4 (protein) MLKQVEIFTDGSCLGNPGPGGYGAILRYRGREKTFSAGYTRTTNNRMELMAAIVALEALKEHCEVILSTDSQYVRQGITQWIHNWKKRGWKTADKKPVKNVDLWQRLDAALGQHQIKWEWVKGHAGHPENERCDELARAAAMNPTLEDTGYQVEV",Tm,[1],23.6 °C
same,unfolding enthalpy (van 't Hoff),[1],41.2 kcal/mol
same,Tm,[2],23.9 °C
same,unfolding enthalpy (van 't Hoff),[2],37.3 kcal/mol
same,Tm,[3],20.4 °C
same,unfolding enthalpy (van 't Hoff),[3],34.7 kcal/mol
same,Tm,[4],24.9 °C
same,unfolding enthalpy (van 't Hoff),[4],35.3 kcal/mol
same,Tm,[5],22.3 °C
same,unfolding enthalpy (van 't Hoff),[5],49.6 kcal/mol
same,Tm,[6],21.5 °C
same,unfolding enthalpy (van 't Hoff),[6],51.5 kcal/mol
same,Tm,[7],21.5 °C
same,unfolding enthalpy (van 't Hoff),[7],48.7 kcal/mol
same,Tm,[8],23 °C
same,unfolding enthalpy (van 't Hoff),[8],52.7 kcal/mol
same,Tm,[9],21.2 °C
same,unfolding enthalpy (van 't Hoff),[9],56.9 kcal/mol
same,Tm,[10],20.9 °C
same,unfolding enthalpy (van 't Hoff),[10],45.5 kcal/mol
same,Tm,[11],20.3 °C
same,unfolding enthalpy (van 't Hoff),[11],52.9 kcal/mol
same,Tm,[12],21 °C
same,unfolding enthalpy (van 't Hoff),[12],46.1 kcal/mol
same,Tm,[13],21.8 °C
same,unfolding enthalpy (van 't Hoff),[13],52 kcal/mol
same,Tm,[14],21.5 °C
same,unfolding enthalpy (van 't Hoff),[14],55.3 kcal/mol
same,Tm,[15],21.7 °C
same,unfolding enthalpy (van 't Hoff),[15],53.4 kcal/mol
same,Tm,[16],20.8 °C
same,unfolding enthalpy (van 't Hoff),[16],54.4 kcal/mol
same,Tm,[17],20.6 °C
same,unfolding enthalpy (van 't Hoff),[17],56.4 kcal/mol
same,Tm,[18],21.9 °C
same,unfolding enthalpy (van 't Hoff),[18],55.7 kcal/mol
same,Tm,[19],23.6 °C
same,unfolding enthalpy (van 't Hoff),[19],70.6 kcal/mol
same,Tm,[20],21.1 °C
same,unfolding enthalpy (van 't Hoff),[20],58.3 kcal/mol
same,Tm,[21],21.7 °C
same,unfolding enthalpy (van 't Hoff),[21],72.5 kcal/mol
same,Tm,[22],25.2 °C
same,unfolding enthalpy (van 't Hoff),[22],78.5 kcal/mol
same,Tm,[23],23.9 °C
same,unfolding enthalpy (van 't Hoff),[23],60.7 kcal/mol
same,Tm,[24],23.9 °C
same,unfolding enthalpy (van 't Hoff),[24],64.8 kcal/mol
same,Tm,[25],24.8 °C
same,unfolding enthalpy (van 't Hoff),[25],74.6 kcal/mol
same,unfolding free energy,"pH 2, 10 °C, glycine-HCl 10 mM",2 kcal/mol
same,Tm,[26],26.5 °C
same,unfolding enthalpy (van 't Hoff),[26],61.3 kcal/mol
same,Tm,[27],28.7 °C
same,unfolding enthalpy (van 't Hoff),[27],67.9 kcal/mol
same,Tm,[28],28.5 °C
same,unfolding enthalpy (van 't Hoff),[28],70.6 kcal/mol
same,Tm,[29],29.9 °C
same,unfolding enthalpy (van 't Hoff),[29],67.1 kcal/mol
same,Tm,[30],32.5 °C
same,unfolding enthalpy (van 't Hoff),[30],63.5 kcal/mol
same,Tm,[31],33 °C
same,unfolding enthalpy (van 't Hoff),[31],65.8 kcal/mol
same,Tm,[32],35.5 °C
same,unfolding enthalpy (van 't Hoff),[32],66.7 kcal/mol
same,Tm,[33],35.4 °C
same,unfolding enthalpy (van 't Hoff),[33],71.8 kcal/mol
same,Tm,[34],39.8 °C
same,unfolding enthalpy (van 't Hoff),[34],76 kcal/mol
same,Tm,[35],42.3 °C
same,unfolding enthalpy (van 't Hoff),[35],81.3 kcal/mol
same,Tm,[36],46.1 °C
same,unfolding enthalpy (van 't Hoff),[36],89 kcal/mol
same,Tm,[37],46.4 °C
same,unfolding enthalpy (van 't Hoff),[37],80.5 kcal/mol
same,Tm,[38],50.1 °C
same,unfolding enthalpy (van 't Hoff),[38],91.6 kcal/mol
same,unfolding free energy,"pH 3, 10 °C, glycine-HCl 10 mM",8.14 kcal/mol
same,unfolding free energy,"pH 3, 25 °C, glycine-HCl 10 mM",6.08 kcal/mol
same,Tm,[39],50.7 °C
same,unfolding enthalpy (van 't Hoff),[39],102 kcal/mol
same,Tm,[40],53.9 °C
same,unfolding enthalpy (van 't Hoff),[40],106 kcal/mol
same,Tm,[41],52.2 °C
same,unfolding enthalpy (van 't Hoff),[41],101 kcal/mol
same,Tm,[42],54 °C
same,unfolding enthalpy (van 't Hoff),[42],102 kcal/mol
same,Tm,[43],55.1 °C
same,unfolding enthalpy (van 't Hoff),[43],109 kcal/mol
same,Tm,[44],58.9 °C
same,unfolding enthalpy (van 't Hoff),[44],96.6 kcal/mol
same,Tm,[45],57.6 °C
same,unfolding enthalpy (van 't Hoff),[45],100 kcal/mol
same,Tm,[46],57.4 °C
same,unfolding enthalpy (van 't Hoff),[46],101 kcal/mol
same,Tm,[47],62.1 °C
same,unfolding enthalpy (van 't Hoff),[47],106 kcal/mol
same,Tm,[48],66 °C
same,unfolding enthalpy (van 't Hoff),[48],125 kcal/mol
same,unfolding free energy,"pH 4, 10 °C, glycine/HCl 10 mM",12 kcal/mol
same,unfolding free energy,"pH 4, 25 °C, glycine-HCl 10 mM",10 kcal/mol
same,Tm,[49],66.6 °C
same,unfolding enthalpy (van 't Hoff),[49],112 kcal/mol
